Measured values published in patent publication US20140256916A1 (Sanofi, published 2014).
Read-outs that look alike come from different tables or passages of the source.

Key:
[1] = target: T1, CA6, tumor-associated MUC1-sialoglycotope (human, UniProt P15941 24-1255, carries the CA6 sialoglycotope (sialylated glycan epitope); sites not stated); experiment: flow cytometry (FACS) on WISH cells (CA6+)
[2] = target: T1, CA6, tumor-associated …; experiment: flow cytometry (FACS) on WISH cells (CA6+); remark: listed apart in the source
[3] = target: T1, CA6, tumor-associated …; experiment: flow cytometry (FACS) on WISH cells (CA6+); remark: listed apart in the source
[4] = target: T1, CA6, tumor-associated …; experiment: method not given; presumably flow cytometry on WISH (CA6+) cells as for the B-Fabs

T1 sequence (P15941 24-1097, chain 1 of 2): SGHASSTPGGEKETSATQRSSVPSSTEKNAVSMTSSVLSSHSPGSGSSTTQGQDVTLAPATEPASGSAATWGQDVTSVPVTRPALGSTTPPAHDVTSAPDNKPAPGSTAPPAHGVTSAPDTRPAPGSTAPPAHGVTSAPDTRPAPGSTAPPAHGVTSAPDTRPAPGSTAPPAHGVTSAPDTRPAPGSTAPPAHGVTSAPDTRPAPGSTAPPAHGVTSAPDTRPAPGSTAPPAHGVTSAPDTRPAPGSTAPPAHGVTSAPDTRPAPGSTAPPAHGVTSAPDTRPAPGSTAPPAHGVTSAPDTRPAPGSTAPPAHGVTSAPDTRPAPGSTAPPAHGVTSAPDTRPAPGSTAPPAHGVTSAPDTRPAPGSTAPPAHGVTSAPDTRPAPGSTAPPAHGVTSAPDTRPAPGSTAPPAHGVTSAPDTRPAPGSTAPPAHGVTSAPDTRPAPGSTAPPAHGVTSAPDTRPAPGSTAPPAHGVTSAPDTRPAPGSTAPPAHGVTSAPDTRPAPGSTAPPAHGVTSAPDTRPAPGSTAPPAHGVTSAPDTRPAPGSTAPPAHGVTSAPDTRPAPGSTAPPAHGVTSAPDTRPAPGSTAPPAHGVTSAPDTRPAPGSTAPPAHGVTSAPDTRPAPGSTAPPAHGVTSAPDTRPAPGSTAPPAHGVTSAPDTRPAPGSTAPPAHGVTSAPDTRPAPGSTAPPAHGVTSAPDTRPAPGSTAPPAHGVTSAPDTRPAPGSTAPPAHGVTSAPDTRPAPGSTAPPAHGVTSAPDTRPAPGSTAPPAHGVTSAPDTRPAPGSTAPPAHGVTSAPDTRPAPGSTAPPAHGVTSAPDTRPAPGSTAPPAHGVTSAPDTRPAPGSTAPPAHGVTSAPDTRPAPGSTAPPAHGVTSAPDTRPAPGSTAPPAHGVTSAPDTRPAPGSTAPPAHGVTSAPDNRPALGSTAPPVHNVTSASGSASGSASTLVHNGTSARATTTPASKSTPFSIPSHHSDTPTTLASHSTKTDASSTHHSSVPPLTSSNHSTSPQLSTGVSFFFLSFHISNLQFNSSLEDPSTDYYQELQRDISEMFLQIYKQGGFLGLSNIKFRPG
T1 sequence (P15941 1098-1255, chain 2 of 2): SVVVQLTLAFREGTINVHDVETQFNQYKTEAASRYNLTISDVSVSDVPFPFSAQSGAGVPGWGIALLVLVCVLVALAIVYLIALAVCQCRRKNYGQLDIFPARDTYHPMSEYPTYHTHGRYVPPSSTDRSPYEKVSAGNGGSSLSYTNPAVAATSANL

B1: Control DS6 monoclonal antibody (antibody, V domains shown)
VH: EAQLVQSGAEVVKPGASVKMSCKASGYTFTSYNMHWVKQTPGQGLEWIGYIYPGNGATNYNQKFQGKATLTADPSSSTAYMQISSLTSEDSAVYFCARGDSVPFAYWGQGTLVTVSA
VL: EIVLTQSPATMSASPGERVTITCSAHSSVSFMHWFQQKPGTSPKLWIYSTSSLASGVPARFGGSGSGTSYSLTISSMEAEDAATYYCQQRSSFPLTFGAGTKLELK
EC50 (read off the curve) [1]: ~2 nM
EC50 (read off the curve) [2]: ~2 nM
EC50 (read off the curve) [3]: ~2 nM
Kd [4]: 2 nM
